B1: Retinoic acid receptor RXR-alpha (Homo sapiens), P19793 (parent)
chain: MDTKHFLPLDFSTQVNSSLTSPTGRGSMAAPSLHPSLGPGIGSPGQLHSPISTLSSPINGMGPPFSVISSPMGPHSMSVPTTPTLGFSTGSPQLSSPMNPVSSSEDIKPPLGLNGVLKVPAHPSGNMASFTKHICAICGDRSSGKHYGVYSCEGCKGFFKRTVRKDLTYTCRDNKDCLIDKRQRNRCQYCRYQKCLAMGMKREAVQEERQRGKDRNENEVESTSSANEDMPVERILEAELAVEPKTETYVEANMGLNPSSPNDPVTNICQAADKQLFTLVEWAKRIPHFSELPLDDQVILLRAGWNELLIASFSHRSIAVKDGILLATGLHVHRNSAHSAGVGAIFDRVLTELVSKMRDMQMDKTELGCLRAIVLFNPDSKGLSNPAEVEALREKVYASLEAYCKHKYPEQPGRFAKLLLRLPALRSIGLKCLEHLFFFKLIGDTPIDTFLMEMLEAPHQMT
B2: Oxysterols receptor LXR-alpha (Homo sapiens), Q13133 (parent)
chain: MSLWLGAPVPDIPPDSAVELWKPGAQDASSQAQGGSSCILREEARMPHSAGGTAGVGLEAAEPTALLTRAEPPSEPTEIRPQKRKKGPAPKMLGNELCSVCGDKASGFHYNVLSCEGCKGFFRRSVIKGAHYICHSGGHCPMDTYMRRKCQECRLRKCRQAGMREECVLSEEQIRLKKLKRQEEEQAHATSLPPRASSPPQILPQLSPEQLGMIEKLVAAQQQCNRRSFSDRLRVTPWPMAPDPHSREARQQRFAHFTELAIVSVQEIVDFAKQLPGFLQLSREDQIALLKTSAIEVMLLETSRRYNPGSESITFLKDFSYNREDFAKAGLQVEFINPIFEFSRAMNELQLNDAEFALLIAISIFSADRPNVQDQLQVERLQHTYVEALHAYVSIHHPHDRLMFPRMLMKLVSLRTLSSVHSEQVFALRLQDKKLPPLLSEIWDVHE

Variants of: B1
Conditions: with ncoa1_human NCOA1, Q15788
Target sequence in this assay (Q15788 whole entry): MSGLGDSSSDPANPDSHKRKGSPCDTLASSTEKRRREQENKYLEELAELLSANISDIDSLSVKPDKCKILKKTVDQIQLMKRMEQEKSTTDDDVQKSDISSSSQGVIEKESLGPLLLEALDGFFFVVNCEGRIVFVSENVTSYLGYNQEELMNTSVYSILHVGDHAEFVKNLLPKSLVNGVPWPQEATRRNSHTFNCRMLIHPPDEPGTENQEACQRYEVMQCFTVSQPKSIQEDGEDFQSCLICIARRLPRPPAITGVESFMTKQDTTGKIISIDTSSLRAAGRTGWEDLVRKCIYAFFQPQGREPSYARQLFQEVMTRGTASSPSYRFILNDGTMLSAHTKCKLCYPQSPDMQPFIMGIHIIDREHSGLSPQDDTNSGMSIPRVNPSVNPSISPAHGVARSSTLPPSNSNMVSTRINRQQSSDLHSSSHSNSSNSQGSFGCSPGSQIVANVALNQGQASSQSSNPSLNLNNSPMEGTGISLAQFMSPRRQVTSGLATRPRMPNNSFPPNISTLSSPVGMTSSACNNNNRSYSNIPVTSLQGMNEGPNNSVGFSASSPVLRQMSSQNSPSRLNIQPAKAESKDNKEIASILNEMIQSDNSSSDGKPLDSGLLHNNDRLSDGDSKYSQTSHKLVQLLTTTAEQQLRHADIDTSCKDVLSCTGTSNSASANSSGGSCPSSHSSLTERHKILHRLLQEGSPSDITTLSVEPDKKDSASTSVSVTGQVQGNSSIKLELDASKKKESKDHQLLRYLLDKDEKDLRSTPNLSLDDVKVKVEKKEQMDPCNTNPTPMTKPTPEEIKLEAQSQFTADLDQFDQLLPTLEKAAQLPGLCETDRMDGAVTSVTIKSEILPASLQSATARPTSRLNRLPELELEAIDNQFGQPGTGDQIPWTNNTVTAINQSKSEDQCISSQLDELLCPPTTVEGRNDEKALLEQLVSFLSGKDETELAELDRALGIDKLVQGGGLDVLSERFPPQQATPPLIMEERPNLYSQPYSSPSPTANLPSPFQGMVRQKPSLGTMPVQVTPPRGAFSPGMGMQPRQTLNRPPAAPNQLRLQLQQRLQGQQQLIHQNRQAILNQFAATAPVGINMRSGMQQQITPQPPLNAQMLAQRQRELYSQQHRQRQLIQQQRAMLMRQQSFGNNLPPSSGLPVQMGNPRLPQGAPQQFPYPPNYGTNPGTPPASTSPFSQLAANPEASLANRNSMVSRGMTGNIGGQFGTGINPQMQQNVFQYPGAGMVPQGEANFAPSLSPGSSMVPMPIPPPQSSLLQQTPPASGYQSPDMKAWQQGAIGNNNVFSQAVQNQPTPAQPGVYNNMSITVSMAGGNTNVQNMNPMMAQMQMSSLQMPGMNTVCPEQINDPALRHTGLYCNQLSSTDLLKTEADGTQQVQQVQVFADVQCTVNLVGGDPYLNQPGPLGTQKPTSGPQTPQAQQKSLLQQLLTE

Row | effect of a mutation on the interaction | Variant
1 | disrupting interaction | K284A

Variants of: B2
Conditions: with ncoa1_human NCOA1, Q15788
Target sequence in this assay (Q15788 whole entry): as above

Row | effect of a mutation on the interaction | Variant
2 | disrupting interaction | E441A
3 | disrupting interaction | I442A

Variants of: B2
Conditions: with ncoa1_human NCOA1, Q15788
Remark: another data set of the same source
Target sequence in this assay (Q15788 whole entry): as above

Row | effect of a mutation on the interaction | Variant
4 | disrupting interaction | K273A

Reference: IntAct's records for PubMed 20682316
